The record followed here is publication doi:10.1101/2022.11.28.518222.

The target of the data set is IRF6 (human, UniProt O14896 1-467). Briefly: EMSA. (In general: In EMSA bound probe runs differently from free probe, usually more slowly.)

B1: IRF6 motif trimer EMSA probe (dsDNA)
DNA 1: TGGTTTCGGTTGACTTGGTTTCGGTTGACTTGGTTTCGGTTGA
DNA 2: TCAACCGAAACCAAGTCAACCGAAACCAAGTCAACCGAAACCA
Take B1: the binding result is reported as “binds”.
